The values below come from US20090117153A1.

Where two headings read alike, the source gives them in different places.

The target in assay [1] is native K^b on cells, loaded with endogenous peptides (mouse) (UniProt P01887). The experiment in a line: cell-based or functional assay.
Assay [2] concerns the target OVA.β2m.Kb SCT Y84A (mouse) (UniProt P01887).
Assay [3] has the same target. This is another data set of the same source.
The target of assay [4] is OVAp5Y.β2m.Kb Y84A SCT (mouse) (UniProt P01887).

In turn, VSV8 peptide yielded a VSV8 concentration that activates the N15 hybridoma; LM1.8 cells (FIG. 11C) in assay [1] of 1 nM.

By IC50 is commonly meant the concentration needed to halve the response being measured. Turning to SIYR peptide, the results for the half-maximal inhibitory concentration (IC50) in assay [2], in assay [3] and in assay [4] were 1.25 µM, 125 µM and 40 µM, respectively.
